Assay: soluble fraction after stress (log2 fold change); higher = more stays soluble; pooled small domains, quantitative proteomics
Settings: stress: pH 4
Outline: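 How much of each domain stays soluble after acid stress, expressed as a fold change, is used to gauge aggregation propensity. Pooled custom libraries of small domains underwent pH 4 stress before high-throughput quantitative proteomics. A higher log2 value means more of the domain stayed soluble.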

Row | Sequence | soluble fraction (log2)
1 | HMSATPQRMSIINELDSARKNLSAYDLRDSLKDKGHSFNISTIYRVLSFWIDVGVVHKMDSSNTYL | -0.315
2 | HMSATVLVHVLGEVRKPGVVSLPEGSRVQDAITAAGGLTSRAKPGDLNLAARVSDGAQLVIGRSGSQVRTT | 0.103
3 | HMSAVVAPLPGLIQNILVKVGDTVHAGQHVLTMEAMKMENEIQTNRDGIIKDIKVRIGDSVNEGDTLIIL | -0.311
4 | HMSDAGAIEPTIKEILASNPKAVEEYLAGNIKNINALIGQSMKALHGKADPQTVRNLLAKLLDEM | -0.487
5 | HMSDAIQLEQKIGLEAIEWYLALSEQTDDKLLYQQWQSWLAADPQHQLAWSRIEQVNHGLNTL | -0.9
6 | HMSDAVQLGLRLRAARERRGLSQQAVADALGLPRTAVTNMESGNRAVSTLELTKLAALYGQSTAFFLSP | 0.291
7 | HMSDDVELLGRLSDREVSVLQYLSQGYSNKQISEQMFISNKTVSTYKARLLLKLNAGSLVDLIEFAKRNTL | -0.961
8 | HMSDEINYVIQINGKNRAEAEFGANLDKESIENLALEHERIKELLNGLTVRKIIVVPKKLVNIVA | 0.178
9 | HMSDESALLELVKQIIADNPKAVEEIRAGKEKAMGFLIGQAMKASRGSANPQIISRLVREQLG | 0.0495
10 | HMSDFDPTLILDLIKGSGEALTKREIARALGIKGGDKRIELKSHLKSMEAEGVIVKQAGGAYSVP | -0.00302
11 | HMSDFSNLNLLELNSSELDLLLRRASSQGLTQMDLLKMARSQGLSEADLIKVKGKIDTSESIKR | -0.0416
12 | HMSDFSSNLRRLRKRAGLSQDALAEKLSVARQTVSSWERGNSYPDLDMLVRISDALATDPNELLYPN | 0.0655
13 | HMSDGDFLQKIAEEILAQFPDKVKEYQKGKKGLIGFFMGELMKRSKGKADPKVATRILEEILSEKNGSS | -0.609
14 | HMSDGTVYGSDGVIKVNLPQSGMLRIYATDGTTLVNRWQAAGIDTISMPRGLYIVRFDNQVWKVVV | 0.00982
15 | HMSDHSSLAGKEGVAVTPLRPAGTAEIDGKRMDVVTMGDYIKAGDHIKVVKVEGNRIIVAKN | -0.0102
16 | HMSDHYEVLGVDRNATDDQIKKAYRRLARELHPDVNDAPESQEKFKLVTHAYEVLSDPDERRKYDMG | 0.056
17 | HMSDIYSLFERELGRTLSSYEYEIIGKWIEKGVSEDTIKRALKEAILNGVTNFKYIDKIIYDWSKN | -1.05
18 | HMSDLFKYSPYKTLTEEQYKITYQIIERLKTDLSNGIPRISIIDGGAGTGKSILGIFLLKLLVDAQN | 0.321
19 | HMSDNLSASERKALSHMEGMESVRSSEVADLLGMSQRGAQKLLNRLVDKGLASSFGANRNRRYSVE | 0.111
20 | HMSDNLTIVRAVYSGLSQRQAAATYHVSRNTVSLLLRHARNRGWLTLEDLAQLDNAAFSKSL | 0.354
21 | HMSDPFSPTTTLKNRAKSVLSVDSFEDFKLFIKKMWQEKKEGVYQNPNVETWKDWDNISVKDAKILISLI | -0.327
22 | HMSDPHEELMSRIARDLSIPLTRVVAEMNTIISKEFGGHIRPEGAVVILAKRSGVEFSDLLPALRENILK | -0.852
23 | HMSDQIQQIAERIAGLRDIAGYSVEELARELGISAEEYKRYESGEVDIPIGFLYKLANKYNVELTAILT | -1.02

Row | Sequence | soluble fraction (log2)
24 | HMSDRFLDQEGVALSTLRPSGTVVLDSGEHLDVVTRGEFIEQGERVKVIKAESTWYVVEQIN | -0.317
25 | HMSDRLRLGRRIRAARLEQNLSQAALAERLGISASYLNLLEHDRRSLTTVLLLKLAQVLGLELRDLAAG | 0.0304
26 | HMSDRLRPGDMVVVVGKKKRYPVFSAFDIDFVEAGDVGKVLTVKREEVVVGFPKKGEGTFTPSELNIAH | 0.00331
27 | HMSDTGQELHDALNMARRTLTILEEQAAGYTALTIPARLVLELEEKRKDVVRLETQIRSAATGTPG | 0.00666
28 | HMSDTLPRLLWNFQMAKRLDEMNGAEKRRYQLVLIHPQASEKERDYASSFAHQARMLGIEVAIRDS | -0.139
29 | HMSDVVFRINANGLNVSGLANGERVSVYDTTGKLVTTAVSTQDNGTLNLPLKQSGGIYIARTQSGVSFKFT | 0.108
30 | HMSDYKSYLQELVQTDKKSLSYNVVKETGPAHDKTFEVEVEVDGIIYAHGVGKSKKEAEQNAAKNAIMISA | -0.24
31 | HMSDYLGSLSHEEKMIFNHFDEDSSTIENMAKKTELKPELISQIFLNLELRGFLRQTEGGLYEKI | -1.13
32 | HMSDYYEVLGVTRQADAEEIKRAYRRKARQLHPDVAGPGHEEEFKEVTVAYEVLSDPEKRQAYDLGGQDAL | 0.0614
33 | HMSEDAVKFRAAVEVENGLAQRNLNKNQAALILGVDRSYFTYIISGKKTPSPDMAKRIGLLLGFDWRVFYA | -0.324
34 | HMSEEIKVPNFVGSTFEKAQALAQETGLEIARGEDVYSPDQEEGKITSQNPTADSVVSPGKLITVYVSKG | 0.0365
35 | HMSEIKDRLREARRNKGLSQAGLSKLLGVSQASIAAIESGRNKRPTNLVSIAKALDVSPYWLETGK | 0.0733
36 | HMSEITQTLSMIGKEVTLEIPDEKDKTKTTEVKGIVTEASFKDGTGKVKVNGEYYSIAYITSIRDT | -0.545
37 | HMSEIVEEQNTKLKQAVSKLSKRQQEVLYLKFEEGLDYEQISKIMDLKYQSVRNLVSTAIIKIKEH | 0.0707
38 | HMSEKELTDLIERIKERRLKLEMSYQDLSDATGISKSTLQRYETGYIKKVPINQIEILAKALHTTPSYLMG | 0.0791
39 | HMSEKIDINNSNELELKQLPLTNEQIKSLIEFRRLHGEIQNIYELKNIDFFNIEKVHELKAHIEIKKII | -1.05
40 | HMSELADDPVYTALEKAADKAGLQLTVRILNDLADAVLKRGKKKLTAAQAGKVIARAESELAKSRID | ≥ 0.43
41 | HMSELDASYLGQRVRYVSGFTETDPSEGLVEFRGSNWRARAEHPPLDHSGHWVIVKVESNTLWVEEKSN | 0.0761
42 | HMSENEIDELRRRFAREAMALMERKGEEVSRTRLAAELSVARARIDAVFPEESDLLEAVTAEWFA | -0.799
43 | HMSENEVQAKVKEIVDRYAGDKSALIAILQDVQDEYRYLPKEALVSIQQQMNIPLSRVYEVATFYDAFS | -0.862
44 | HMSEPIYTQLKEILTQKIVNGEFPPGARLPSEYELTELYHISRSTVRLALKELEASGMIVRRRGKGTFVSS | -0.0496
45 | HMSEPRYRQLATILAQEIRSNHSAGDQLPSEQALAKRFEVNRHTVRRAVDELVAAGMVTRHQGWGTQVV | 0.243
46 | HMSEQGVITAKFASIVGNQNIQLVMFPDSVYLKGQVSSEEEKKRAETVASSLIQDRKIVNLIEFE | -0.638

Row | Sequence | soluble fraction (log2)
47 | HMSEQIALQFAKAKQHHTGIALKGIEALELRYKGYTGKEIAALYHTSPKSVFSWISRAKQKLRQN | ≥ 0.43
48 | HMSEQLHALIDRLDDIPDDELKKNWPGTLRDLVDVISAELHRQGIEPAQAGMLARKVAAAQAGYMG | -0.742
49 | HMSEQLKQIAERIKELRNIAGLGEEELAAKLDIPVDTYREYESGNVDIPVSFLYKISGMFNVELTAIL | -1.05
50 | HMSEQLVGTVGHITVGTARTASPAEAKFLDAFEQPHYLLVEPIEPKDIFQQGDKVVLVKKQHHSWLATRYI | 0.0779
51 | HMSEQTLEDVRRLIEHLPESQKEVVKMRYYQDLSFKEIADLKGISINTALGRMHYAINNMRKMAKEYGL | -0.473
52 | HMSEQVQLQAQVEDDLIGKRLDQVVAQLFPDYSRSRLQGWIKDGSLTVDGESRRPRDKMMGGEVVRVEATL | -0.347
53 | HMSEQVTMIDVEGKTETEAKKALEDLGLKVEITYESADAAAGTVIGQDVKAGSTVSEGSRVTLTVSGQ | -0.211
54 | HMSERQTGTVKWFNNAKGFGFITMADRPDDIFVHFRAIQGDGYRSLNEGEEVEFSLVEGPKGLQAEEVTK | -1.09
55 | HMSESAGKAFDLLFYLAKAGETVSLARLSRETGMNKATALRYLNVLESKGVVERSKLGWTLGLSLFELGSK | -0.508
56 | HMSESIFTLYGDEKFEKIRYYLKERGFITLDALARFDFDELLFVPGVSELLISEAKQLFSRYDTSSLAAKE | -0.921
57 | HMSETAEFIIQVNGKVRAKLQLPTDISKEEIQKLALADENVQKYLNGEPRKIIFPPNTRLVSIV | -0.0446
58 | HMSETEEWTVEGGQAGDRIDRHVAAMLGDDVSRSQVQQWIRAGRVTVNGRAVKPSDTVEEGDRVAVDLPEP | -0.397
59 | HMSETVYQYVARQLRDMLGSGEIPVGQQLPTYRELAKRFQVSLSVIQRAMRQLKAEAVVSIAHGQGVKAVR | -0.176
60 | HMSEVPVLVAKTDIKELELIDDRKVTLINVPQKFKMPGSFNSPEEVYNTIAAVPIKEGEQITKPRVTWP | -0.443
61 | HMSEVSEILTRARFFAGVKTDAELSTLLKIPYGTLIGWKTRKNIPESRIAQMALILGIRRDTLIPA | -0.11
62 | HMSEYIFGKNVVKEAFNNPSRIEEIYVLDKNMEFVSLAKKYHIKYTVITSSEMNKMVSGNHQGVVALVK | -0.264
63 | HMSFDENEALRKALDVFWEKGYDGTSLSDLTEAMGINKPSLYATFGNKDQLFLKAIEMYENR | -1.44
64 | HMSFDTFKKVFSNLVEKSGYSDAEIARRLGVNRSTISRWKSGEQSPPLPKVKEIANFFGVSPMVFVD | 0.0603
65 | HMSFFNGNQMKILRKKLQLNQEEMGEKLGIKKSYVSQLENNRKEITEEIDQILQELEQEYQDKM | -0.0582
66 | HMSFGESLKKLSIALNSIRKLATTDAGKKDPKVADLLGQIRDTFNSYRTHLRKNYPDLYSGIKNQL | -0.311
67 | HMSFGKKLRSLRQEKKLSQVELSKKLNVTSQALSQYELGKRIPDAEMIIRIADFFDVSVDYLLDRT | -0.137
68 | HMSFGWESLENKEGVADTDLHPSGWVRIEDSRIFVVSEGDFINKGSKVTVLTVDGNRVVVRELI | -1.79
69 | HMSFNISPTKKLILELIMNGTAAVEAIAVKAGISKGMAYNHLRELRSMGYITDEGGYKITDSGRLAV | -0.399

Source: the domain aggregation screens of Martell et al. (2025)
